For assay [1], the target named is T1, Human MAGEB2 (Melanoma-associated antigen B2) (human, UniProt O15479 1-319).
T1 construct: Intracellular antigen detected by IHC in FFPE material: CHO cells transfected with human MAGEB2 (mCherry vector with Myc/DDK tags, or ORF without tags)
T1 sequence: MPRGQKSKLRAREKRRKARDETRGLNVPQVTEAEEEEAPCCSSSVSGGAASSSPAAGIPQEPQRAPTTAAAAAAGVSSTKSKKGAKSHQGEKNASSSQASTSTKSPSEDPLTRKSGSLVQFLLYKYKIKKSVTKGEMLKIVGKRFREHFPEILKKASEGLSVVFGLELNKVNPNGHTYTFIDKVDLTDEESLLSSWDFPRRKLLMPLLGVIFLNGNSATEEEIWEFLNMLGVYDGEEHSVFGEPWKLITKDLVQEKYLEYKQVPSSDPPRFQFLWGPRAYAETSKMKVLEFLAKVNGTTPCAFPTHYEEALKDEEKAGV
The assay can be described thus: IHC on FFPE UM-UC-3 cells (endogenous MAGEB2). How it is done:
(§1) FFPE samples were sectioned at 4 μm and mounted on positive charged glass slides. After mounting, paraffin sections were air-dried at room temperature. FFPE TMA samples were received as freshly sectioned and mounted on glass slides. The fully automated IHC assay was performed on a Discovery Ultra Stainer (Ventana Medical Systems, Tucson, AZ) using Ventana Anti-Rabbit HQ (cat #760-4815), Ventana Anti-HQ HRP (cat #760-4820), and Ventana Antibody Diluent with Casein (cat #760-219) (Ventana Medical Systems, Tucson, AZ). The slides were baked on the Discovery Ultra Stainer at 60° C. for 8 minutes, de-paraffinized with Ventana Discovery wash (cat #950-510) for 3 cycles (8 minutes each) at 69° C., and underwent cell conditioning (target retrieval) at 95° C. for 16 minutes (for cell arrays) or 32 minutes (tissues or TMAs) in CC1 buffer (cat #950-500). Following this, slides were incubated with Background Sniper (cat #BS966M, Biocare Medical, Pacheco, CA) in a Ventana Option Prep kit (cat #771-751) for 28 minutes, incubated with CM inhibitor (a part of the Ventana DAB kit cat #760-159) for 12 minutes, and incubated for 1 h at RT with MAGE-B2 antibody diluted with Ventana diluent with Casein in a Ventana Prep kit (cat #770-001) (working concentration at 0.1 μg/ml for cell pellet, or 1-5 ug/ml for tissues) or with a matched concentration of isotype control Rabbit IgG1 antibody. Following this, slides were incubated with the Ventana Anti-Rabbit HQ (cat #760-4815) for 28 minutes at RT, Ventana Anti-HQ HRP (cat #760-4820) for 28 minutes at RT, and signals detected with Ventana DAB chromogen kit (cat #760-159) for 5 minutes at RT. Slides were counterstained with Ventana Hematoxylin II (cat #5266726001) for 8 minutes and Ventana Bluing reagent (cat #526676900) for 4 minutes. Slides were coverslipped and digitized using an Aperio AT2 scanner (Leica Biosystems Inc, Buffalo Grove, IL).

A further assay deals with T2, human MAGEA8 (human, UniProt P43361 1-318).
T2 construct: whole, on cells; FFPE cell pellets
T2 sequence (looked up): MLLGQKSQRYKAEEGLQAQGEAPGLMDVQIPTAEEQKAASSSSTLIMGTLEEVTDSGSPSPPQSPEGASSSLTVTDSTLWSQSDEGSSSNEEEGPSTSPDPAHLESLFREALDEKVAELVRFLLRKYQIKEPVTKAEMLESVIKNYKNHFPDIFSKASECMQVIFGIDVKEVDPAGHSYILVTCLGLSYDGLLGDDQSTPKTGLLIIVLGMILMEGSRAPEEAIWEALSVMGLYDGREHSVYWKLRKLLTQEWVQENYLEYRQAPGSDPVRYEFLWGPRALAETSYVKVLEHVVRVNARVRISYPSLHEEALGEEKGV
The assay can be described thus: IHC, FFPE CHO cells transfected with human MAGEA8.
Source text: Negative control cells included parental Chinese hamster ovary (CHO) cells, CHO cells stably transfected with mCherry Vector Control (minus Myc/DDK tags), CHO cells stably transfected with mCherry-human DCAF4L2 (plus Myc/DDK tags). The cross-reactivity control cells included CHO cells transfected with mCherry Vector Control (plus Myc/DDK tags) with one of the human MAGE-B or MAGE-A family members (MAGEA1, MAGEA2, MAGEA3, MAGEA4, MAGEA5, MAGEA6, MAGEA8, MAGEA9, MAGEA11, MAGEA12, MAGEB1, MAGEB3, MAGEB4, MAGEB5, MAGEB6, MAGEB10, MAGEB16, MAGEB17, MAGEB18). Positive control cell lines included CHO cells transfected with mCherry Vector (plus Myc/DDK tags) with human MAGE-B2 or CHO cells transfected with mCherry Vector (open reading frame (ORF); minus Myc/DDK tags) with human MAGEB2, and thirteen human cancer cell lines with known endogenous RNA expression level of MAGEB2 (U266B1, T98G, KMM-1, U20S, CFPAC-1, SCaBER, UACC-257, CFPAC-1, VMRC-LCD, NCI-H1703, UM-UC-3, NCI-H1395, NCIH82).
as §1, with “antibody.” for “antibody. Following this, slides were incubated with the Ventana Anti-Rabbit HQ (cat #760-4815) for 28 minutes at RT, Ventana Anti-HQ HRP (cat #760-4820) for 28 minutes at RT, and signals detected with Ventana DAB chromogen kit (cat #760-159) for 5 minutes at RT. Slides were counterstained with Ventana Hematoxylin II (cat #5266726001) for 8 minutes and Ventana Bluing reagent (cat #526676900) for 4 minutes. Slides were coverslipped and digitized using an Aperio AT2 scanner (Leica Biosystems Inc, Buffalo Grove, IL).”

B1: 1I14 (antibody, V domains shown)
VH: QSVEESGGRLVTPGTPLTLTCTISGFSLSSYAMSWVRQAPGKGLEWIGSIGGGGSAVYASWAKGRFTISKTSTTVDLRITSPTTEDTAMYFCGRGFYSIDLWGPGTLVTVSS
VL: DVVMTQTPASVEATVGGTVTIKCQSSQSVYDNNALAWYQQNAGQRPRLLIYGASTLASGVPSRFSASGSGTEFTLTISDLECADAATYYCQCTYYVSSYQNDFGGGTEVVVKG
notes: also called MAGE-B2 (1i14)
As for B1, the “IHC Intensity” value in assay [1] came out at 0. In addition, in the assay with human MAGEA8, the binding result is “no binding (tested: 0.1 µg/ml)”.

B2: 1C3 (antibody, V domains shown)
VH: QSLEESGGGLVQPEGSLTLTCTAFGVTLTNYYICWVRQAPGKGLEWVGCIDNANGRTYYASWAKGRFTISKTSSTTGTLQMTSLTAADTATYFCARSLATPLWGPGTLVTVSS
VL: DIVMTQTPSSVEAAVGGTVTIKCQASQNISSYLAWYQQKPGQPPKLLIYRASTLASGVPSRFKGSGSGTQFTLTISDLECADAATYYCQSYDDSRSSNFFYAFGGGTEVVVKG
notes: also called MAGE-B2 (IC3); anti-MAGEB2 antibody 1C3
For the molecule B2, in the assay with human MAGEA8, the binding result is “no binding (tested: 0.1 µg/ml)”.

B3: 4G17 (antibody, IgG1, V domains shown)
VH: QSLEESGGGLVQPEGSLTLTCTASGVTLSNYYICWVRQAPGKGLEWIGCIDNVNGRTYYASWAKGRFTISKTSSTTGTLQMTSLTAADTATYFCARSLATPLWGPGTLVTVSS
VL: DIVMTQTPASVEAAVGGTVTIKCQASQNIDSYLAWYQQKPGQPPKLLIYRASTLASGVPSRFKGSGSGTEFTLTISDLECADAATYYCQSYDDSRSSSFFYGFGGGTEVVVK
notes: Rabbit monoclonal IgG1; Tested as supernatant and as small batch purified antibody; also called MAGE-B2 (4G17); anti-MAGEB2 antibody 4G17
In the case of B3, the “IHC Intensity” value in assay [1] came to 0. The binding result with human MAGEA8 is listed as “no binding (tested: 0.1 µg/ml)”.

B4: 1J15 (antibody, IgG1, V domains shown)
VH: QSLEESGGGLVQPEGSLTLTCTAFGFTLNNYYICWVRQAPGKGLEWIACIDNANGRTYYASWAKGRFTISKTSSTTVTLQMTSLTAADTATYFCARSLSTPLWGPGTLVTVSS
VL: DIVMTQTPASVEAAVGGTVTIKCQASQSISSYLSWYQQKPGQPPKLLIYRASTLASGVPSRFRGSGSGTQFTLTISDLECADAATYYCQSYDDSSDNNFFYGFGGGTEVVVR
notes: Rabbit monoclonal IgG1; Tested as supernatant and as small batch purified antibody; also called MAGE-B2 (IJ15); anti-MAGEB2 antibody 1J15
Turning to B4, the “IHC Intensity” value in assay [1] turned out to be 0. In the assay with human MAGEA8, the binding result was “no binding (tested: 0.1 µg/ml)”.

(Values after patent US20250282887A1 (Amgen, published 2025).)
